Test results: patent publication US9265844B2, “Protease degradable polypeptides and uses thereof” (THE METHODIST HOSPITAL SYSTEM, priority 2010, dated 2016)
Non-standard residues stand in square brackets, D forms with d. Residues, ends and D or L forms follow the SMILES beside them. *: point of attachment. Dnp = O=[N+]([O-])c1ccc(*)c([N+](=O)[O-])c1; Mca = COc1ccc2c(CC(=O)*)cc(=O)oc2c1

Tests used:
Assay type in all cases: biochemical
Cath S = target: T1, Cath S (Homo sapiens, UniProt P25774); test: FRET hydrolysis of substrate e by Cath S; settings: 90 minutes, pH 6.5
T1 construct: purchased Calbiochem, EMD Bioscience (Gibbstown, N.J.)
T1 sequence (P25774 115-331): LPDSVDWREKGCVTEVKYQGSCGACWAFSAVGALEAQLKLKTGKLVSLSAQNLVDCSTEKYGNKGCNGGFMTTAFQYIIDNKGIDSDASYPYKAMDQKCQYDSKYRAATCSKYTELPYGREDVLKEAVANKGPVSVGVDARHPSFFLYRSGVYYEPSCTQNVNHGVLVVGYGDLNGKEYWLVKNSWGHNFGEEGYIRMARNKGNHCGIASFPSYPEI
Protocol: (§1) The catalytic selectivity of Cath E and Cath D was determined fluorometrically by FRET-based hydrolysis of intramolecularly quenched peptide substrates a-e. Fluorogenic substrates a-e (10 μL, 200 μM) were incubated with 23 pmol of Cath E or Cath D in 50 mM sodium acetate buffer, pH 4, containing 150 mM NaCl, and the total volume was brought to 100 μL, using the same buffer. Cath S and Cath B were pre-activated by incubation with 100 mM sodium acetate buffer solution, pH 6.5, containing 5 mM DTT and 5 mM EDTA for 5 minutes. Cath S and Cath B (23 pmol) were incubated with 10 μL, of 200 μM fluorogenic substrate e at 100 mM sodium acetate buffer solution, pH6.5, containing 5 mM DTT and 5 mM EDTA, and the total volume was brought to 100 μL, using the same buffer. All assays were performed in triplicate in 96 well black walls, clear-bottom plates (Corning, N.Y.). The change in the fluorescence intensity was monitored over time using SpectraMax.M2^e fluorescence spectrophotometer (Molecular Devices; Sunnyvale, Calif.) at excitation wavelength (λex) of 340 nm and emission wavelength (λem) of 405 nm at 37° C. Control experiments were performed simultaneously by replacing the enzyme with assay buffer.

Cath D [1] = target: T2, Cath D (Homo sapiens, UniProt P07339); test: Enzyme digestion, fragments by RP-HPLC and ESI-MS (Cath D); settings: high dose of Cath D, overnight hydrolysis
T2 sequence (P07339 65-412): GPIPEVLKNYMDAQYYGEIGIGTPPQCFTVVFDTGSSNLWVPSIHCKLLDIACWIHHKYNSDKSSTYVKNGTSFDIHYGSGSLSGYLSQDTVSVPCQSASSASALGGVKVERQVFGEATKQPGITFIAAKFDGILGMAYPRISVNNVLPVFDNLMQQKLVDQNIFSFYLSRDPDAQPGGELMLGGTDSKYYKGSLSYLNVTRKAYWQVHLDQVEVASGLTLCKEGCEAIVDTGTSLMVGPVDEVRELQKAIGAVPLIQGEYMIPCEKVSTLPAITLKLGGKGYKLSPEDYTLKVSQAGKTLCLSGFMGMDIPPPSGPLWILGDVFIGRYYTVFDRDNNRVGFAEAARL
Protocol: Substrate e was subjected to aspartic peptidase digestion using Cath E and Cath D. […] The resulting digestion fragments were analyzed by the aforementioned analytical RP-HPLC and ESI-MS.

Cath B = target: T3, Cath B (Homo sapiens, UniProt P07858); test: FRET hydrolysis of substrate e by Cath B; settings: 90 minutes, pH 6.5
T3 construct: purchased Calbiochem, EMD Bioscience (Gibbstown, N.J.)
Protocol: as §1

Cath E [2] = target: T4, Cath E (Homo sapiens, UniProt P14091); test: Enzyme digestion, fragments by RP-HPLC and ESI-MS (Cath E); design: purchased Calbiochem, EMD Bioscience (Gibbstown, N.J.); settings: excess Cath E, 37° C., 3 hours
T4 sequence (P14091 54-396): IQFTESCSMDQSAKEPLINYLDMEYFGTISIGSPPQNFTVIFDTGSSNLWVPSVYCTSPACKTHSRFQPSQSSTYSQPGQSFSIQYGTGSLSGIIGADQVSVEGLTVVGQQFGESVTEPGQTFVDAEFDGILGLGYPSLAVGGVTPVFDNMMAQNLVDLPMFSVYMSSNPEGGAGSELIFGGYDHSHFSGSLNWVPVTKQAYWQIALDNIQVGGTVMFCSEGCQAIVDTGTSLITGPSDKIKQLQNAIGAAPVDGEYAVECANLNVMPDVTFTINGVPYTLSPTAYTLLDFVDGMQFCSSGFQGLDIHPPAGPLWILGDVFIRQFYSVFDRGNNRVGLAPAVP
Protocol: Substrate e was subjected to aspartic peptidase digestion using Cath E and Cath D. Fluorogenic substrate e (10 μL, 100 μM) was incubated at 37° C. for 3 hours with excess Cath E or Cath D (˜119 pmol) in 100 μL, of 50 mM sodium acetate buffer (pH 4) containing 150 mM NaCl. The resulting digestion fragments were analyzed by the aforementioned analytical RP-HPLC and ESI-MS.

Cath E [3] = target: T4, Cath E; test: FRET hydrolysis of quenched substrates a-e by Cath E; design: purchased Calbiochem, EMD Bioscience (Gibbstown, N.J.); settings: for time to saturation of fluorescence on activation by Cath E: 23 pmol Cath E
Protocol: as §1

Cath D [4] = target: T2, Cath D; test: FRET hydrolysis of quenched substrates a-e by Cath D; settings: compared among substrates a-e
Protocol: as §1

Cath E [5] = target: T4, Cath E; test: Reported specificity constants of Cath E for various substrates; design: purchased Calbiochem, EMD Bioscience (Gibbstown, N.J.); settings: sequence 3 vs sequence 2
Excerpt: Table 4 compiles the reported specificity constant (Kcat/Km) of Cath E and Cath D using various substrates including peptide substrate e. […] The specificity constant of Cath E for substrate e represents one of the highest reported Kcat/Km values.

[6] = substrate: COc1ccc2c(CC(=O)N[C@@H](C)C(=O)NCC(=O)N[C@@H](Cc3ccccc3)C(=O)N[C@@H](CO)C(=O)N[C@@H](CC(C)C)C(=O)N3CCC[C@H]3C(=O)N[C@@H](C)C(=O)N[C@@H](CCCCNc3ccc([N+](=O)[O-])cc3[N+](=O)[O-])C(=O)N[C@H](CCCNC(=N)N)C(N)=O)cc(=O)oc2c1; test: Kinetic parameters of substrate e hydrolysis by Cath E; settings: other: Cath E 6.8 nM, pH 4.0, 10 minutes, 37° C., Woolf transformation
Protocol: The initial rates of substrate e hydrolysis by Cath E were monitored using a fluorescence plate-reader. Hydrolysis of different substrate e concentrations, 10, 20, 40 and 60 μM, was performed at pH 4 in 50 mM sodium acetate buffer containing 150 mM NaCl. Cath E with various concentrations, 2.27, 4.55, 6.82 nM, were incubated with substrate e and the changes in the fluorescence intensities were monitored for 10 minutes. The substrate e hydrolysis was determined by integrating the fluorescence intensity, and plotted by the amount of the hydrolyzed substrate e over time.
The initial velocities of the hydrolysis reactions were measured between 0 and 10 minutes using several concentrations of substrate e including: 5, 10, 20, 40, 60, 80, 100 μM. All of the used substrate e concentrations were much higher than the concentrations of enzyme (2.3, 4.5 and 6.8 nM). To measure the initial rates of the substrate e proteolysis and to determine Michaelis-Menten kinetic parameters Vmax and Km of the Cath E and Cath D, the Michaelis-Menten equation was transformed using the Woolf kinetic transformation [S/v=(S/Vmax)+(Km/Vmax)]. The initial velocity was calculated from the slope during the linear phase of the reaction and S/Vplotted versus substrate e concentration. The graph representation gave straight lines and Vmax and Km were calculated by the linear regression of the line to obtain the slope and intercept. The turnover number of Cath E enzyme (Kcat) was calculated using the equation Kcat=Vmax/[Cath E], where [Cath E] represents the Cath E concentration in μM and Vmax is the maximum velocity in μM S-1. All the reactions and measurements were carried out in 50 mM sodium acetate buffers (pH 4.0) using the aforementioned setting.

## COc1ccc2c(CC(=O)N[C@@H](C)C(=O)NCC(=O)N[C@@H](Cc3ccccc3)C(=O)N[C@@H](CO)C(=O)N[C@@H](CC(C)C)C(=O)N3CCC[C@H]3C(=O)N[C@@H](C)C(=O)N[C@@H](CCCCNc3ccc([N+](=O)[O-])cc3[N+](=O)[O-])C(=O)N[C@H](CCCNC(=N)N)C(N)=O)cc(=O)oc2c1 [Substrate e, Mca-Ala-Gly-Phe-Ser-Leu**Pro-Ala-Lys(Dnp)-DArg-CONH2] (Mca-AGFSLPAK(Dnp)[dR]-NH2)
Cath S
  fluorescent signal increase relative to that observed with Cath E: less than 15%
Cath D [1]
  cleavage sites: two minor cleavage sites
Cath B
  fluorescent signal increase relative to that observed with Cath E: less than 15%
Cath E [2]
  cleavage site: exclusively between Leu^5 and Pro^6
Cath E [3]; 200 μM substrate, pH 4.0
  time to saturation of fluorescence on activation by Cath E: ≤ 10 min
Cath E [3]; 1 minute / initial time point, 200 μM substrate, 23 pmol enzyme, pH 4.0
  net fluorescence signal ratio (Cath E/Cath D): 265 fold

## Mca-Ala-Gly-Phe-Ser-Leu**Gly-Pro-Lys(Dnp)-DArg-CONH2 (Mca-AGFSLGPK(Dnp)[dR]-NH2; SMILES COc1ccc2c(CC(=O)N[C@@H](C)C(=O)NCC(=O)N[C@@H](Cc3ccccc3)C(=O)N[C@@H](CO)C(=O)N[C@@H](CC(C)C)C(=O)NCC(=O)N3CCC[C@H]3C(=O)N[C@@H](CCCCNc3ccc([N+](=O)[O-])cc3[N+](=O)[O-])C(=O)N[C@H](CCCNC(=N)N)C(N)=O)cc(=O)oc2c1) [Substrate d]
Cath E [3]; 200 μM substrate, pH 4.0
  time to saturation of fluorescence on activation by Cath E: did not reach saturation within the monitored period

## Mca-Gly-Ser-Pro-Ala-Phe**Leu-Ala-Lys(Dnp)-DArg-CONH2 (Mca-GSPAFLAK(Dnp)[dR]-NH2; SMILES COc1ccc2c(CC(=O)NCC(=O)N[C@@H](CO)C(=O)N3CCC[C@H]3C(=O)N[C@@H](C)C(=O)N[C@@H](Cc3ccccc3)C(=O)N[C@@H](CC(C)C)C(=O)N[C@@H](C)C(=O)N[C@@H](CCCCNc3ccc([N+](=O)[O-])cc3[N+](=O)[O-])C(=O)N[C@H](CCCNC(=N)N)C(N)=O)cc(=O)oc2c1) [Substrate a]
Cath D [4]
  fluorescence increase / hydrolysis upon incubation with Cath D: the highest among all investigated substrates
Cath E [5]
  Kcat/Km for Cath E relative to sequence 2: around 16 fold
Cath E [3]; compared among substrates a-e
  fluorescence increase upon incubation with Cath E: the fastest increase and the highest fluorescence signal among all investigated substrates

B1: Cath E (Homo sapiens) (protein)
chain: T4 sequence (P14091 54-396)
notes: purchased Calbiochem, EMD Bioscience (Gibbstown, N.J.)
[6]
  Km: 19.37 µM
  Vmax: 2.2 μM S^−1
  kcat: 322.5 S^−1
  kcat/Km: 16.7 μM^−1 S^−1
